Laboratory results from publication PMC10786891, “Massively parallel profiling of RNA-targeting CRISPR-Cas13d”.
Changes are numbered by the printed parent chain. Names and notes keep the numbering of the source.

T1: EsCas13d, nuclease-dead (Eubacterium siraeum, UniProt B0MS50, R295A;H300A;R849A;H854A)
T1 sequence: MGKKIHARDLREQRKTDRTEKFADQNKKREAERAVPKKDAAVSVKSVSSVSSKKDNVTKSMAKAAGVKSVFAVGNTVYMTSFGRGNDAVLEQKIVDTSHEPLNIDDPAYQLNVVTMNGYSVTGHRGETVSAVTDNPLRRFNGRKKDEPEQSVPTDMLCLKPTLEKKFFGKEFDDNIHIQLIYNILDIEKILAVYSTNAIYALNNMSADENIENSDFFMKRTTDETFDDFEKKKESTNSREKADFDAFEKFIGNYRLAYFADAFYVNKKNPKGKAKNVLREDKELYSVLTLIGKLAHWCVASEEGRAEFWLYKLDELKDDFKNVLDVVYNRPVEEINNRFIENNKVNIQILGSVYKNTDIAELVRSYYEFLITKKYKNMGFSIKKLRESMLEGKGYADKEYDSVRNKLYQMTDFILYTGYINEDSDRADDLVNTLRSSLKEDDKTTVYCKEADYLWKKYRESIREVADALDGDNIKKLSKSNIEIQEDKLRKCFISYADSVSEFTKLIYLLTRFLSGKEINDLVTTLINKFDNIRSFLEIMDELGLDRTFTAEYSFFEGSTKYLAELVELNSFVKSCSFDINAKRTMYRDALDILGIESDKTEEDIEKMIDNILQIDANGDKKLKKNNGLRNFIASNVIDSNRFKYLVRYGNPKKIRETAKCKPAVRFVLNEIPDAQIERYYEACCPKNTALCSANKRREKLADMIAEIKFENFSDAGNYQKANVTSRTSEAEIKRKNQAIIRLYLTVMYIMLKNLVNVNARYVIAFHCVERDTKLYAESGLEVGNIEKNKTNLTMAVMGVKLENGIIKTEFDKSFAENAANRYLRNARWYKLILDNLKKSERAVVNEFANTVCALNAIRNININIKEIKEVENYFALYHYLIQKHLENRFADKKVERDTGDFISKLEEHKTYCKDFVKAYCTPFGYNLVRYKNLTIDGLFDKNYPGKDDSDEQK

B1: target 2 MT 5'PFS CGC 3'PFS CAU (mixed)
RNA 1: CACCCGUGCAAAAUUGCAGGGGUCUAAAACCUUCUCCAAAUUGUUUCAUCCU
RNA 2: GGGAAUGGAUCCACAUCUACGAAUUCCGCAGGAUGAAACAAUUUGGAGAAGCAUAGAUCGGAAGAGCACACGU
B2: target 2 MT 5'PFS UAC 3'PFS CCC (mixed)
RNA 1: B1 RNA 1
RNA 2: B1 RNA 2 with C27U, G28A, A53C, U54C
B3: target 2 MT 5'PFS GGU 3'PFS AUC (mixed)
RNA 1: B1 RNA 1
RNA 2: B1 RNA 2 with C27G, C29U, C52A, A53U, U54C
B4: target 2 MT 5'PFS GGU 3'PFS AUA (mixed)
RNA 1: B1 RNA 1
RNA 2: B1 RNA 2 with C27G, C29U, C52A, A53U, U54A
B5: target 2 MT 5'PFS UAC 3'PFS CCA (mixed)
RNA 1: B1 RNA 1
RNA 2: B1 RNA 2 with C27U, G28A, A53C, U54A
B6: target 2 MT 5'PFS GGU 3'PFS UCC (mixed)
RNA 1: B1 RNA 1
RNA 2: B1 RNA 2 with C27G, C29U, C52U, A53C, U54C
B7: target 2 MT 5'PFS GAU 3'PFS CAG (mixed)
RNA 1: B1 RNA 1
RNA 2: B1 RNA 2 with C27G, G28A, C29U, U54G
B8: target 2 MT 5'PFS CAG 3'PFS CUG (mixed)
RNA 1: B1 RNA 1
RNA 2: B1 RNA 2 with G28A, C29G, A53U, U54G
B9: target 2 MT 5'PFS CAG 3'PFS CUC (mixed)
RNA 1: B1 RNA 1
RNA 2: B1 RNA 2 with G28A, C29G, A53U, U54C
B10: target 2 MT 5'PFS AAC 3'PFS UUG (mixed)
RNA 1: B1 RNA 1
RNA 2: B1 RNA 2 with C27A, G28A, C52U, A53U, U54G
B11: target 2 MT 5'PFS GGU 3'PFS AUG (mixed)
RNA 1: B1 RNA 1
RNA 2: B1 RNA 2 with C27G, C29U, C52A, A53U, U54G
B12: target 2 MT 5'PFS AAC 3'PFS AUU (mixed)
RNA 1: B1 RNA 1
RNA 2: B1 RNA 2 with C27A, G28A, C52A, A53U
B13: target 2 MT 5'PFS GAU 3'PFS CAC (mixed)
RNA 1: B1 RNA 1
RNA 2: B1 RNA 2 with C27G, G28A, C29U, U54C
B14: target 2 MT 5'PFS GAU 3'PFS CAA (mixed)
RNA 1: B1 RNA 1
RNA 2: B1 RNA 2 with C27G, G28A, C29U, U54A
B15: target 1 A18U,C22A (mixed)
RNA 1: CACCCGUGCAAAAAUGCAGGGGUCUAAAACUGAGCGGAUAACCUCUCUAUGG
RNA 2: GGGAAUGGAUCCACAUCUACGAAUUCGUAACAUUGAGAGGUUAUCCGCUCACCGAGAUCGGAAGAGCACACGU
B16: target 1 A1C,G13A (mixed)
RNA 1: B15 RNA 1
RNA 2: B15 RNA 2 with A30C, U34A, G39A, A51C
B17: target 1 A16C,C21A (mixed)
RNA 1: B15 RNA 1
RNA 2: B15 RNA 2 with A30C, C31A, U34A, A36C

biological target: T1, EsCas13d, nuclease-dead; assay: crRNA (strand 1, pre-loaded); Mg2+; 40 mM Tris-HCl pH 7.5, 150 mM NaCl, 6 mM MgCl2, 1 mM DTT, 0.1% Tween-20, 0.2 mg/ml BSA; 25 C; 10 min per concentration, then washed; details: tags: His6-TwinStrep-SUMO cleaved; N-terminal SNAP kept (SNAP-Surface 488); label: 3' end held by stalled T7 RNA polymerase

**Q.** Which Kd does the source give for B1 here?
**A.** Its Kd is 4.5 ± 0.7 nM.

**Q.** With B2 as the binder, how does the Kd read?
**A.** The Kd was about 19 nM.

**Q.** How did the Kd turn out when B3 was run?
**A.** The Kd was 20 ± 3 nM.

**Q.** Which Kd does the source give for B4 here?
**A.** Its Kd is 14.8 ± 2.7 nM.

**Q.** How did the Kd turn out when B5 was run?
**A.** Its Kd is 17 ± 4 nM.

**Q.** How did the Kd turn out when B6 was run?
**A.** The Kd was 76 ± 19 nM.

**Q.** How did the Kd turn out when B7 was run?
**A.** The Kd was 8.7 ± 0.6 nM.

**Q.** How did the Kd turn out when B8 was run?
**A.** The Kd was 7.2 ± 1.3 nM.

**Q.** For B9, which Kd is on record?
**A.** Its Kd is 6.5 ± 1.3 nM.

**Q.** Which Kd does the source give for B10 here?
**A.** Its Kd is 8.5 ± 1.3 nM.

**Q.** With B11 as the binder, how does the Kd read?
**A.** The Kd was 16.1 ± 1.6 nM.

**Q.** B12 was tested. Which Kd did it give?
**A.** The Kd was 6.1 ± 1.8 nM.

**Q.** How did the Kd turn out when B13 was run?
**A.** Its Kd is 11.3 ± 2.4 nM.

**Q.** B14 was tested. Which Kd did it give?
**A.** Its Kd is 14 ± 5 nM.

**Q.** B15 was tested. Which Kd did it give?
**A.** The Kd was 58 ± 6 nM.

**Q.** B16 was tested. Which Kd did it give?
**A.** The Kd was 14.8 ± 2.5 nM.

**Q.** With B17 as the binder, how does the Kd read?
**A.** The Kd was 66 ± 11 nM.
